In this data set the test system is Escherichia coli TOP10. The data set is described as follows: shrunken log2 fold change of peptide-encoding DNA abundance (4.5 h post-induction vs induction); higher = less antimicrobial activity (less host growth inhibition). The note with it: time post-induction: 4.5 h; library: site-saturation at positions 5, 18, 19, 20.
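Also: peptides expressed intracellularly from a pBAD plasmid library in pooled LB shake-flask culture, induced with 0.3% L-arabinose, DNA abundance read by NGS, three biological replicates, DESeq2 with apeglm shrinkage.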

Turning to RRIRWRPPRLPRPRPRPPVQPRP, the “shrunken log2 fold change” value was 0.952.

Consider RRIRCRPPRLPRPRPRPHRNPRP, for which the “shrunken log2 fold change” value is -0.791. On to RRIRARPPRLPRPRPRPHNKPRP, for which the “shrunken log2 fold change” value was -0.398. Take RRIRCRPPRLPRPRPRPRDCPRP: the “shrunken log2 fold change” value turned out to be 0.313. Regarding RRIRTRPPRLPRPRPRPLCYPRP, the “shrunken log2 fold change” value is -0.452. RRIRGRPPRLPRPRPRPHMQPRP: the “shrunken log2 fold change” value was -0.121. Turning to RRIRCRPPRLPRPRPRPPNIPRP, the “shrunken log2 fold change” value is -0.573.

For RRIRGRPPRLPRPRPRPIVEPRP, the “shrunken log2 fold change” value came out at 0.194. As for RRIRNRPPRLPRPRPRPTEGPRP, the “shrunken log2 fold change” value amounted to 0.0116. Turning to RRIRGRPPRLPRPRPRPMDPPRP, the “shrunken log2 fold change” value turned out to be 0.00995.

For RRIRIRPPRLPRPRPRPIYKPRP, the “shrunken log2 fold change” value is -0.517. For the sequence RRIRARPPRLPRPRPRPFHYPRP, the “shrunken log2 fold change” value is -0.371. Take RRIRSRPPRLPRPRPRPADKPRP: the “shrunken log2 fold change” value was -0.254. Consider RRIRGRPPRLPRPRPRPRLSPRP, for which the “shrunken log2 fold change” value worked out at 0.313. Consider RRIRRRPPRLPRPRPRPRLGPRP, for which the “shrunken log2 fold change” value was 0.76. As for RRIRCRPPRLPRPRPRPKTWPRP, the “shrunken log2 fold change” value is 0.0688.

For the sequence RRIRSRPPRLPRPRPRPHISPRP, the “shrunken log2 fold change” value was -0.035. Turning to RRIRNRPPRLPRPRPRPEVWPRP, the “shrunken log2 fold change” value stood at 0.815. Take RRIRYRPPRLPRPRPRPDGQPRP: the “shrunken log2 fold change” value worked out at 0.0173. The figure for RRIRGRPPRLPRPRPRPAVLPRP is 0.394. In the case of RRIRCRPPRLPRPRPRPDKVPRP, the “shrunken log2 fold change” value was -0.224. Take RRIRSRPPRLPRPRPRPLCMPRP: the “shrunken log2 fold change” value was -0.242. For RRIRQRPPRLPRPRPRPGATPRP, the “shrunken log2 fold change” value stood at 0.273. For the sequence RRIRGRPPRLPRPRPRPPGVPRP, the “shrunken log2 fold change” value was 0.931. The same measure for RRIRGRPPRLPRPRPRPIEVPRP: 0.289. With RRIRWRPPRLPRPRPRPYMLPRP, the “shrunken log2 fold change” value is -0.298. Take RRIRGRPPRLPRPRPRPSNGPRP: the “shrunken log2 fold change” value is 2.8. For RRIRCRPPRLPRPRPRPDKQPRP, the “shrunken log2 fold change” value was -0.0405. For the sequence RRIRIRPPRLPRPRPRPKARPRP, the “shrunken log2 fold change” value is -0.0685. On to RRIRSRPPRLPRPRPRPTRTPRP, for which the “shrunken log2 fold change” value is 0.386. Consider RRIRVRPPRLPRPRPRPILIPRP, for which the “shrunken log2 fold change” value was -0.413. RRIRWRPPRLPRPRPRPACNPRP: the “shrunken log2 fold change” value was -0.144.

Turning to RRIRFRPPRLPRPRPRPAMMPRP, the “shrunken log2 fold change” value amounted to 0.0488.

Consider RRIRTRPPRLPRPRPRPPYTPRP, for which the “shrunken log2 fold change” value was -0.397.

In the case of RRIRHRPPRLPRPRPRPIMFPRP, the “shrunken log2 fold change” value was -0.439. Take RRIRTRPPRLPRPRPRPFPRPRP: the “shrunken log2 fold change” value was 0.0242. For RRIRNRPPRLPRPRPRPMEKPRP, the “shrunken log2 fold change” value amounted to 0.0048. Regarding RRIRCRPPRLPRPRPRPSLNPRP, the “shrunken log2 fold change” value was -0.341. The figure for RRIRCRPPRLPRPRPRPNKIPRP is -0.461; for RRIRRRPPRLPRPRPRPYASPRP it is -0.0782; for RRIRHRPPRLPRPRPRPKIMPRP it is -0.811. With RRIRVRPPRLPRPRPRPWRGPRP, the “shrunken log2 fold change” value is 0.378. As to RRIRMRPPRLPRPRPRPAPVPRP, the “shrunken log2 fold change” value was found to be 0.764. RRIRLRPPRLPRPRPRPHCDPRP: the “shrunken log2 fold change” value was 0.00399.

In the case of RRIRWRPPRLPRPRPRPSVGPRP, the “shrunken log2 fold change” value was found to be 0.149.

As to RRIRVRPPRLPRPRPRPCENPRP, the “shrunken log2 fold change” value is -0.0135. Take RRIRARPPRLPRPRPRPWNIPRP: the “shrunken log2 fold change” value was -0.675. Turning to RRIRDRPPRLPRPRPRPNIMPRP, the “shrunken log2 fold change” value is -0.367. Turning to RRIRCRPPRLPRPRPRPMWAPRP, the “shrunken log2 fold change” value was found to be 0.378. The same measure for RRIRRRPPRLPRPRPRPGWRPRP: 0.425; for RRIRLRPPRLPRPRPRPTCGPRP: 0.281. Regarding RRIRIRPPRLPRPRPRPSHRPRP, the “shrunken log2 fold change” value is -0.276. For the sequence RRIRARPPRLPRPRPRPSDMPRP, the “shrunken log2 fold change” value came to 0.16.

RRIRCRPPRLPRPRPRPGCWPRP: the “shrunken log2 fold change” value was determined as 0.569. RRIRWRPPRLPRPRPRPKQHPRP: the “shrunken log2 fold change” value amounted to 0.299.

For the sequence RRIRKRPPRLPRPRPRPARLPRP, the “shrunken log2 fold change” value came out at 0.434. As to RRIRDRPPRLPRPRPRPERPPRP, the “shrunken log2 fold change” value stood at 0.0268. On to RRIRWRPPRLPRPRPRPACAPRP, for which the “shrunken log2 fold change” value stood at 0.766.

As for RRIRGRPPRLPRPRPRPTELPRP, the “shrunken log2 fold change” value was 0.261. With RRIRRRPPRLPRPRPRPWHFPRP, the “shrunken log2 fold change” value amounted to 0.121. Consider RRIRTRPPRLPRPRPRPQEPPRP, for which the “shrunken log2 fold change” value was -0.0583. RRIRSRPPRLPRPRPRPWPEPRP: the “shrunken log2 fold change” value was determined as 0.519. In the case of RRIRVRPPRLPRPRPRPTHIPRP, the “shrunken log2 fold change” value turned out to be 0.268. On to RRIRDRPPRLPRPRPRPSTRPRP, for which the “shrunken log2 fold change” value came out at 0.152. The figure for RRIRQRPPRLPRPRPRPVCEPRP is -0.00878; for RRIRQRPPRLPRPRPRPGCYPRP it is -0.451; for RRIRDRPPRLPRPRPRPEDPPRP it is 0.439. Consider RRIRMRPPRLPRPRPRPLCSPRP, for which the “shrunken log2 fold change” value was -0.0295. In the case of RRIRRRPPRLPRPRPRPHANPRP, the “shrunken log2 fold change” value turned out to be 0.275.

Regarding RRIRCRPPRLPRPRPRPRSLPRP, the “shrunken log2 fold change” value was 0.197. On to RRIRARPPRLPRPRPRPTTRPRP, for which the “shrunken log2 fold change” value turned out to be 0.61.

In the case of RRIRPRPPRLPRPRPRPFDIPRP, the “shrunken log2 fold change” value was -0.395. For RRIRCRPPRLPRPRPRPYHMPRP, the “shrunken log2 fold change” value was -0.56. Regarding RRIRMRPPRLPRPRPRPCSPPRP, the “shrunken log2 fold change” value was determined as 0.0324. On to RRIRVRPPRLPRPRPRPPPGPRP, for which the “shrunken log2 fold change” value was determined as 1.01.

RRIRSRPPRLPRPRPRPRVQPRP: the “shrunken log2 fold change” value is -0.25. The figure for RRIRWRPPRLPRPRPRPIMFPRP is -0.189; for RRIRHRPPRLPRPRPRPYPVPRP it is -0.00992; for RRIRLRPPRLPRPRPRPDKLPRP it is -0.266. Turning to RRIRPRPPRLPRPRPRPKYSPRP, the “shrunken log2 fold change” value is -0.55.

For RRIRRRPPRLPRPRPRPSQDPRP, the “shrunken log2 fold change” value is 0.112. The figure for RRIRCRPPRLPRPRPRPNGDPRP is 0.105. With RRIRSRPPRLPRPRPRPDFHPRP, the “shrunken log2 fold change” value is -0.751. Take RRIRLRPPRLPRPRPRPEDCPRP: the “shrunken log2 fold change” value was 0.0408. For the sequence RRIRLRPPRLPRPRPRPNWHPRP, the “shrunken log2 fold change” value is -0.0136. Regarding RRIRERPPRLPRPRPRPEFMPRP, the “shrunken log2 fold change” value is -0.096. The same measure for RRIRQRPPRLPRPRPRPGINPRP: -0.296; for RRIRFRPPRLPRPRPRPPYVPRP: -0.36; for RRIRSRPPRLPRPRPRPADMPRP: 0.0296.

For RRIRWRPPRLPRPRPRPSWWPRP, the “shrunken log2 fold change” value was found to be 0.2. As for RRIRARPPRLPRPRPRPAVGPRP, the “shrunken log2 fold change” value was determined as 0.512.

(Values after the supplement of paper PMC9112550, “Optimization of the antimicrobial peptide Bac7 by deep mutational scanning” (BMC Biology, 2022).)
